Data: US6391637

How the values were obtained:
[1] = molecular target: T1, CD40/Fc fusion protein (human, UniProt P25942 21-193); assay: biosensor assay substantially as in Example 22 (CD40/Fc captured on the chip); Affinity Ka
T1 sequence (P25942 21-193): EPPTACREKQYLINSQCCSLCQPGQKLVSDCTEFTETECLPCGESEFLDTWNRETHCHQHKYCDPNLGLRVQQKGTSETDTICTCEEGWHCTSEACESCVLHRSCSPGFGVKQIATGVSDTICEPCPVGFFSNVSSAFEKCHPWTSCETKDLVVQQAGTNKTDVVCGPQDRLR

[2] = molecular target: T1, CD40/Fc fusion protein; assay: BIAcore biosensor; CD40/Fc captured on the chip; first experiment; K2 (site 2)
Experimental: (§1) This example illustrates the binding affinities of several different CD40-L constructs. Affinity experiments were conducted by biospecific interaction analysis (BIA) using a biosensor, an instrument that combines a biological recognition mechanism with a sensing device or transducer. An exemplary biosensor is BIAcore™, from Pharmacia Biosensor AB (Uppsala, Sweden; see Fagerstam L.G., Techniques in Protein Chemistry II, ed. J. J. Villafranca, Acad. Press, NY, 1991). BIAcore™ uses the optical phenomenon surface plasmon resonance (Kretschmann and Raether, Z. Naturforschung, Teil. A 23:2135, 1968) to monitor the interaction of two biological molecules. Molecule pairs having affinity constants in the range 10^5 to 10^10 M^-1, and association rate constants in the range of 10^3 to 10^6 M^-1s^-1, are suitable for characterization with BIAcore™.
(§2) The biosensor chips were coated with goat anti-human IgG_1 Fc, which was used to bind CD40/Fc (prepared as described in Example 1) to the chip. The different constructs of CD40-L were then added at increasing concentrations; the chip was regenerated between the different constructs by the addition of sodium hydroxide. Two separate experiments were performed. […] The resultant data were analyzed to determine the affinity and association rate constants of the different CD40-L constructs. […]

[3] = molecular target: T1, CD40/Fc fusion protein; assay: BIAcore biosensor; CD40/Fc captured on the chip; first experiment; K1 (site 1)
Experimental: as §1, §2

[4] = molecular target: T2, CD40/Fc fusion protein (human, UniProt P25942 21-193); assay: BIAcore biosensor; CD40/Fc captured on the chip; first experiment; K2 (site 2)
T2 construct: extracellular domain; also called sCD40/Fc; C40/Fc; not shown: remainder of the human IgG1 Fc region (hinge onwards), joined at a Bgl II site
Experimental: as §1, §2
T2 sequence (P25942 21-193): as above

[5] = molecular target: T2, CD40/Fc fusion protein; assay: BIAcore biosensor; CD40/Fc captured on the chip; first experiment; K1 (site 1)
Experimental: as §1, §2

B1: CD40 ligand/zipper domain fusion protein mutant 194.W (ligand, not shown: a dimerising Fc or GST; small tags and cut ends)
chain: MQKGDQNPQIAAHVISEASSKTTSVLQWAEKGYYTMSNNLVTLENGKQLTVKRQGLYYIYAQVTFCSNREASSQAPFIASLWLKSPGRFERILLRAANTHSSAKPCGQQSIHLGGVFELQPGASVFVNVTDPSQVSHGTGFTSFGLLKL
B1 was tested, and the Ka [1] was 1.8e+09 M⁻¹.

B2: dimeric murine CD40-L (Fc fusion, prepared substantially as in Example 14) (Fc fusion)
chain: DKVEEEVNLHEDFVFIKKLKRCNKGEGSLSLLNCEEMRRQFEDLVKDITLNKEEKKENSFEMQRGDEDPQIAAHVVSEANSNAASVLQWAKKGYYTMKSNLVMLENGKQLTVKREGLYYVYTQVTFCSNREPSSQRPFIVGLWLKPSSGSERILLKAANTHSSSQLCEQQSVHLGGVFELQAGASVFVNVTEASQVIHRVGFSSFGLLKL
With B2 the Ka [2] was 4e+07 M⁻¹ and the Ka [3] was 7e+09 M⁻¹.

B3: CD40-L/FC2 soluble human CD40-L/Fc fusion protein (Fc fusion, not shown: a dimerising Fc or GST; small tags and cut ends)
chain: DKIEDERNLHEDFVFMKTIQRCNTGERSLSLLNCEEIKSQFEGFVKDIMLNKEETKKENSFEMQKGDQNPQIAAHVISEASSKTTSVLQWAEKGYYTMSNNLVTLENGKQLTVKRQGLYYIYAQVTFCSNREASSQAPFIASLCLKSPGRFERILLRAANTHSSAKPCGQQSIHLGGVFELQPGASVFVNVTDPSQVSHGTGFTSFGLLKL
notes: also called dimeric human CD40-L; Human Dimer
Work on B3 yielded a Ka [4] of 7e+08 M⁻¹ and a Ka [5] of 1.6e+11 M⁻¹.
